Tested on: E. necator
Test: Leaf disc assay, dry inoculum (settling tower), decrease in disease severity / hyphal growth (Example 2)
Conditions: decrease in disease severity (hyphal growth) relative to untreated control, value ± SE; for % decrease =/− SE TP1: time point 1 (untreated control hyphal growth ≥50%); for % decrease =/− SE TP2: time point 2

B1: GS3620 (nucleic acid)
sense: AGUUGAAGUGCUGUAAAUGGUACAGUCAUGGAAAGAGUAGUUGGAUACGAGAUAUAGAAGGCUGUGAUGCCUUCAGUGCGAUAGAUAUAGCGGGCACAAUCACUCAGUGAUCUAUAAAUUUUGCGAGAGUUAUGCAUUUGCAUUCUUUGCUUUAUUACAUCAAAUGGGUUCAUUAAAGCAUCACUUGCAAUUGUUGCGCAUGCCCCACUUGUAACUAUGUAGCUUCAGUAAGUGCUCAAUAUCAAGGAUAAAUUGGCGAUGUAGUCAUAUAUGUCUGAUUCCUUAAUCAAAAUUCUUAAU
antisense: AUUAAGAAUUUUGAUUAAGGAAUCAGACAUAUAUGACUACAUCGCCAAUUUAUCCUUGAUAUUGAGCACUUACUGAAGCUACAUAGUUACAAGUGGGGCAUGCGCAACAAUUGCAAGUGAUGCUUUAAUGAACCCAUUUGAUGUAAUAAAGCAAAGAAUGCAAAUGCAUAACUCUCGCAAAAUUUAUAGAUCACUGAGUGAUUGUGCCCGCUAUAUCUAUCGCACUGAAGGCAUCACAGCCUUCUAUAUCUCGUAUCCAACUACUCUUUCCAUGACUGUACCAUUUACAGCACUUCAACU
% decrease =/− SE TP1: 6 ± 8%
% decrease =/− SE TP2: 8 ± 7%

B2: GS3622 (nucleic acid)
sense: AUGAAGUGCAGGAUUUUUCUCUAUAAGUUUCUUACGUUGUAGCGCCGAAGCUUCUCUAAGUUUAAUCUCUGAUGGAGAUAAAACGUUAUAUAUAGGCGUACCAACAGCAAUUGUCCCCUCUUUAAGUAGAUAUAACUUUCGCUUAUCUUUGUCUCGGUCAGUGCGGAAGUUUGUCCCAGCUUCUGUAAGUUUUACAGCUUUUUCUCGAUUAACUGCUCUUGACACUUGAAGUACGCGACCUUCUAUUGUGUAUAAGCCAUUCUUAUCAGCAGUUUCAUCCUCUAAAAUAGAGUUUUUAGCUUUAACAGCGUUUGCACCACUUUUGAAGGUACGAGGUGCACCAUGGUAACAAGAGUCCGCAUCUUCUUGUCUAUAGAAGCAAACAAAGCCAGUGCCUUUA
antisense: UAAAGGCACUGGCUUUGUUUGCUUCUAUAGACAAGAAGAUGCGGACUCUUGUUACCAUGGUGCACCUCGUACCUUCAAAAGUGGUGCAAACGCUGUUAAAGCUAAAAACUCUAUUUUAGAGGAUGAAACUGCUGAUAAGAAUGGCUUAUACACAAUAGAAGGUCGCGUACUUCAAGUGUCAAGAGCAGUUAAUCGAGAAAAAGCUGUAAAACUUACAGAAGCUGGGACAAACUUCCGCACUGACCGAGACAAAGAUAAGCGAAAGUUAUAUCUACUUAAAGAGGGGACAAUUGCUGUUGGUACGCCUAUAUAUAACGUUUUAUCUCCAUCAGAGAUUAAACUUAGAGAAGCUUCGGCGCUACAACGUAAGAAACUUAUAGAGAAAAAUCCUGCACUUCAU
% decrease =/− SE TP1: 17 ± 4%

B3: GS1813: dsRNA trigger SEQ ID NO 117; gene target hypothetical_protein_BC1G_11193 (nucleic acid)
DNA: CAATACTTATAGACATAATGTATATTGATAATAATCTAGTGTTGCATATCATTGATGAAGCAACTAATTTTCAGGCGGCTAGGTGGCTCAATAATATCTCTGCCAAACATACATGGGATGCCATACGTGCTTGTTGGATTGATACTTACGTTGGGCCCCCAGACTGCATAATAACAGATGCTGGTAAAAACTTCGTTAGCAAGGAATTTAATCAAAATGCATCATCAATGGAAATTTCGGTGAAAAACGTTCCTGTTGAAGCGCATTGGTCAATAGGAAAAATAGAGCGCTATCACTCTTGCATTCGTCGAGCTTATAAAATTATATCAGAAGAACTAGCTGGAACCGGAATCGGCAAAGAGTTTATGCTCCAGATGGCGGTAAAAGCCATAAACGACACAGCCGGACCTAATGGCTTAGTCCCAACTCTTTTAGTTTTTGGAGCTTATCCAAGAATGTCAAATTTAGACCCTCCTATGCCATCCATAATTCAACGGGCTGCTGCAATCAAAAAGGCGATGCTAGAGATAAGTAAATTACGCGCAAAGCTAACCGTGAATAGTGCTCTAAACCATCGAAACGGACCGAATACGAATA
% decrease =/− SE TP1: 11 ± 5%
% decrease =/− SE TP2: 4 ± 5%

B4: GS3623 (nucleic acid)
sense: AGUUUCUUACGUUGUAGCGCCGAAGCUUCUCUAAGUUUAAUCUCUGAUGGAGAUAAAACGUUAUAUAUAGGCGUACCAACAGCAAUUGUCCCCUCUUUAAGUAGAUAUAACUUUCGCUUAUCUUUGUCUCGGUCAGUGCGGAAGUUUGUCCCAGCUUCUGUAAGUUUUACAGCUUUUUCUCGAUUAACUGCUCUUGACACUUGAAGUACGCGACCUUCUAUUGUGUAUAAGCCAUUCUUAUCAGCAGUUUCAUCCUCUAAAAUAGAGUUUUUAGCUUUAACAGCGUUUGCACCACUUUUGAAGGUACGAGGUGCACCAUGGUAACAAGAGUCCGCAUCUUCUUGUCUAUA
antisense: UAUAGACAAGAAGAUGCGGACUCUUGUUACCAUGGUGCACCUCGUACCUUCAAAAGUGGUGCAAACGCUGUUAAAGCUAAAAACUCUAUUUUAGAGGAUGAAACUGCUGAUAAGAAUGGCUUAUACACAAUAGAAGGUCGCGUACUUCAAGUGUCAAGAGCAGUUAAUCGAGAAAAAGCUGUAAAACUUACAGAAGCUGGGACAAACUUCCGCACUGACCGAGACAAAGAUAAGCGAAAGUUAUAUCUACUUAAAGAGGGGACAAUUGCUGUUGGUACGCCUAUAUAUAACGUUUUAUCUCCAUCAGAGAUUAAACUUAGAGAAGCUUCGGCGCUACAACGUAAGAAACU
% decrease =/− SE TP1: 20 ± 3%

B5: GS3625 (nucleic acid)
sense: GUUUGCCUUUCCAAAUAUCCAUCAUGCAGCUUUGUAACGUACCUCUCGUCCUGUUUGGUCUCCUCUGCUUUGGACUAGUUUCAACUGCUCCAGCACCAAACUCACCUUGGCAUCUACGAAGCCGACAGGAAGGUGGUGGCUACUAUGGCCAACCAUCGAAUGGUGAUGGAAGUGUGUAUCCACCUUCAUCUGGUACAGGUGGCUUUCUAUCGCCAACUGCUACGAGCGGUUAUCCGUCUGCAACUGGAACUGGCGGCUAUUCAUCUCCAUCGGGCACCGGUGGCUACCCGUCUGCAACAGGUACAGGUGGUUACGCAUCGCCAACAGGGACCAGUUACCCUACACCUACUGGAGGUUACUCUGAAGAGCCCUACCACUAUAAAGGUGUCAAGCUAGGUC
antisense: GACCUAGCUUGACACCUUUAUAGUGGUAGGGCUCUUCAGAGUAACCUCCAGUAGGUGUAGGGUAACUGGUCCCUGUUGGCGAUGCGUAACCACCUGUACCUGUUGCAGACGGGUAGCCACCGGUGCCCGAUGGAGAUGAAUAGCCGCCAGUUCCAGUUGCAGACGGAUAACCGCUCGUAGCAGUUGGCGAUAGAAAGCCACCUGUACCAGAUGAAGGUGGAUACACACUUCCAUCACCAUUCGAUGGUUGGCCAUAGUAGCCACCACCUUCCUGUCGGCUUCGUAGAUGCCAAGGUGAGUUUGGUGCUGGAGCAGUUGAAACUAGUCCAAAGCAGAGGAGACCAAACAGGACGAGAGGUACGUUACAAAGCUGCAUGAUGGAUAUUUGGAAAGGCAAAC
% decrease =/− SE TP1: 1 ± 2%
% decrease =/− SE TP2: 0 ± 3%

B6: GS3626 (nucleic acid)
sense: GCAGCUUUGUAACGUACCUCUCGUCCUGUUUGGUCUCCUCUGCUUUGGACUAGUUUCAACUGCUCCAGCACCAAACUCACCUUGGCAUCUACGAAGCCGACAGGAAGGUGGUGGCUACUAUGGCCAACCAUCGAAUGGUGAUGGAAGUGUGUAUCCACCUUCAUCUGGUACAGGUGGCUUUCUAUCGCCAACUGCUACGAGCGGUUAUCCGUCUGCAACUGGAACUGGCGGCUAUUCAUCUCCAUCGGGCACCGGUGGCUACCCGUCUGCAACAGGUACAGGUGGUUACGCAUCGCCAACAGGGACCAGUUACCCUACACCUACUGGAGGUUACUCUGAAGAGCCCUAC
antisense: GUAGGGCUCUUCAGAGUAACCUCCAGUAGGUGUAGGGUAACUGGUCCCUGUUGGCGAUGCGUAACCACCUGUACCUGUUGCAGACGGGUAGCCACCGGUGCCCGAUGGAGAUGAAUAGCCGCCAGUUCCAGUUGCAGACGGAUAACCGCUCGUAGCAGUUGGCGAUAGAAAGCCACCUGUACCAGAUGAAGGUGGAUACACACUUCCAUCACCAUUCGAUGGUUGGCCAUAGUAGCCACCACCUUCCUGUCGGCUUCGUAGAUGCCAAGGUGAGUUUGGUGCUGGAGCAGUUGAAACUAGUCCAAAGCAGAGGAGACCAAACAGGACGAGAGGUACGUUACAAAGCUGC
% decrease =/− SE TP1: 3 ± 7%
% decrease =/− SE TP2: 26 ± 7%

B7: GS3627 (nucleic acid)
sense: CUGUUUGGUCUCCUCUGCUUUGGACUAGUUUCAACUGCUCCAGCACCAAACUCACCUUGGCAUCUACGAAGCCGACAGGAAGGUGGUGGCUACUAUGGCCAACCAUCGAAUGGUGAUGGAAGUGUGUAUCCACCUUCAUCUGGUACAGGUGGCUUUCUAUCGCCAACUGCUACGAGCGGUUAUCCGUCUGCAACUGGAACUGGCGGCUAUUCAUCUCCAUCGGGCACCGGUGGCUACCCGUCUGCAACAGGUACAGGUGGUUACGCAUCGCCAACAGGGACCAGUUACCCUACACCUAC
antisense: GUAGGUGUAGGGUAACUGGUCCCUGUUGGCGAUGCGUAACCACCUGUACCUGUUGCAGACGGGUAGCCACCGGUGCCCGAUGGAGAUGAAUAGCCGCCAGUUCCAGUUGCAGACGGAUAACCGCUCGUAGCAGUUGGCGAUAGAAAGCCACCUGUACCAGAUGAAGGUGGAUACACACUUCCAUCACCAUUCGAUGGUUGGCCAUAGUAGCCACCACCUUCCUGUCGGCUUCGUAGAUGCCAAGGUGAGUUUGGUGCUGGAGCAGUUGAAACUAGUCCAAAGCAGAGGAGACCAAACAG
% decrease =/− SE TP1: 30 ± 3%
% decrease =/− SE TP2: 29 ± 6%

B8: GS3628 (nucleic acid)
sense: UAGUUUCAACUGCUCCAGCACCAAACUCACCUUGGCAUCUACGAAGCCGACAGGAAGGUGGUGGCUACUAUGGCCAACCAUCGAAUGGUGAUGGAAGUGUGUAUCCACCUUCAUCUGGUACAGGUGGCUUUCUAUCGCCAACUGCUACGAGCGGUUAUCCGUCUGCAACUGGAACUGGCGGCUAUUCAUCUCCAUCGGGCACCGGUGGCUACCCGUCUGCAACAGGUACAGGUGGUUACGCAUCGCCAA
antisense: UUGGCGAUGCGUAACCACCUGUACCUGUUGCAGACGGGUAGCCACCGGUGCCCGAUGGAGAUGAAUAGCCGCCAGUUCCAGUUGCAGACGGAUAACCGCUCGUAGCAGUUGGCGAUAGAAAGCCACCUGUACCAGAUGAAGGUGGAUACACACUUCCAUCACCAUUCGAUGGUUGGCCAUAGUAGCCACCACCUUCCUGUCGGCUUCGUAGAUGCCAAGGUGAGUUUGGUGCUGGAGCAGUUGAAACUA
% decrease =/− SE TP1: 12 ± 2%
% decrease =/− SE TP2: 7 ± 5%

— US12077763B2, “RNA-based control of powdery mildew” (Greenlight Biosciences, Inc., priority 2021, dated 2024)
